Assay results as given in the supplement of paper PMC12764529.
± gives the half width of the 95% confidence interval.

How the values were obtained:
[1] = folding stability dG unfold from trypsin proteolysis; higher = more stable
Procedure, shortened: (§1)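 Unfolding free energy was derived, per protease or combined, by relating Bayesian-fitted K50 values from sequencing counts to a sequence-predicted unfolded-state K50 and a shared folded-state K50. The underlying digests exposed cysteine-free mini-proteins under 80 residues, in a PA-tagged cDNA display construct, to trypsin and chymotrypsin at 11 threefold-diluted concentrations and to a no-protease condition. A filter kept only designs with AlphaFold2 dimer inter-PAE above 15.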

[2] = folding stability dG unfold from chymotrypsin proteolysis; higher = more stable
Procedure, shortened: as §1

[3] = folding stability dG unfold (combined trypsin and chymotrypsin); higher = more stable
Procedure, shortened: as §1

Sequence	folding stability dG unfold [1] [kcal/mol]	folding stability dG unfold [2] [kcal/mol]	folding stability dG unfold [3] [kcal/mol]
SAGGSAGGMLRVRVETTLPGSGETLDLELEFPSEEEARRAIEALVPPEERAEVRVEFLPPGVPESAGGSAGG [r6_657_JUSTAS]	-0.156 ± 0.37	1.44 ± 0.08	1.06 ± 0.1
SAGGSAGGMLTFTFSLSEIPPYPSGSLSLEEVKKRMEPILRKLLGRKDVKIKVESLPDGTIRVTVESAGGSA [r15_562_JUSTAS]	3.95 ± 0.25	4.99 ± 0.23	4.37 ± 0.27
SAGGSAGGMPAEWLDEIEAPPGNYRAELYKTEKEVRIIITLPNGEKLELTFEVKPDEEILVLPGSAGGSAGG [r6_379_TrMRF]	1.89 ± 0.057	2.12 ± 0.17	2.05 ± 0.097
SAGGSAGGMPVEVTETPVGTFPDGSTVTRTETVLPGGEVLVETTVTYPDGSSTTTTRRVPPELASAGGSAGG [r6_263_JUSTAS]	2.39 ± 0.084	2.41 ± 0.059	2.43 ± 0.092
SAGGSAGGMTAVEVKEETVPITLTSSFFPGGVPVPGAAVSTITITTTTTIEPPTGKTVKVTVAGSAGGSAGG [r6_424_JUSTAS]	-0.318 ± 0.037	-0.658 ± 0.12	-0.423 ± 0.074
SAGGSAGGMTFTIPPGKPVTIRVYNRNGELIEEVTVTGAGARIHVSEIPGTGELKITRIDEIPPSAGGSAGG [r6_523_TrMRF]	2.33 ± 0.049	2.91 ± 0.071	2.72 ± 0.087
SAGGSAGGMTLKIKVAPGAVIRIYNKDGELIEEIEVEEGEEVEIEIELPEEDLENLRIEILPAPSAGGSAGG [r6_471_TrROS_Hall]	3.96 ± 0.27	4.6 ± 0.079	4.42 ± 0.25
SAGGSAGGMTLTLELTLENGKKVRIEVEVNENGSLKVKITYPNGKKVEIEVNMSLEELLKKLLSSAGGSAGG [r6_808_TrROS_Hall]	3.75 ± 0.26	3.66 ± 0.14	3.91 ± 0.29
SAGGSAGGMTTTEISTKKLPDGTWATTVTTTTITATNGVPVTTSTPTTIINPGDPSVAIAAALSSAGGSAGG [r6_129_JUSTAS]	0.209 ± 0.013	-1 ± 0.29	-0.173 ± 0.057
SAGGSAGGMTVTTTSSFDPTSPTANTLTTTYVSPEELKRPEIQALPDLPGKTLEFPTTTPVPPPSAGGSAGG [r6_768_JUSTAS]	0.679 ± 0.031	0.0452 ± 0.048	0.431 ± 0.085
SAGGSAGGMVETKLVESEELPGNRRVLTYRVTEPDSLYRVTVELTLDPSGTVLSSKTTTEPIPLSAGGSAGG [r6_20_JUSTAS]	0.846 ± 0.053	1.12 ± 0.093	1.04 ± 0.073
SAGGSAGGMVIEGRIKIVSPDGGEKEIPVVLFIPESFPDANLEELAEAIAKEILPPGYKADFEGSAGGSAGG [r6_821_TrMRF]	0.601 ± 0.065	1 ± 0.023	0.879 ± 0.17
SAGGSAGGMVIKIITNAPSLEEAEEIAKRVAAELRERFGGPDVEIVLDVEVIPLPPVPTEDGKPSAGGSAGG [r6_182_TrMRF]	1.38 ± 0.053	1.97 ± 0.16	1.82 ± 0.092
SAGGSAGGMVISLPNNYKIKLGITDAEFDEVKVYTGPNGPKKLVSGANIKLKIGISIYKSNDNSSAGGSAGG [r6_585_TrMRF]	1.24 ± 0.036	1.43 ± 0.19	1.4 ± 0.17
SAGGSAGGMVKVSSDPATGKVYVTYPGADPEAVAEKVKKEYGAKKIKVEKDPNKDVTTITITVESAGGSAGG [r6_662_JUSTAS]	-1.01 ± 0.45	0.271 ± 0.14	-0.0511 ± 0.19
SAGGSAGGMVLRITLPNGEVIEIPLEELGLSEEERKRRLAELLAEELRKLFPGKEIKVEVVELPSAGGSAGG [r6_164_TrROS_Hall]	3.54 ± 0.08	4 ± 0.057	3.83 ± 0.14
SAGGSAGGMVRFDPAGGRLFLDGVPVELSEVLSVESLEEEGRVRVEALLVDGSRLEFEIPKEALSAGGSAGG [r6_682_JUSTAS]	1.73 ± 0.036	2.323 ± 0.021	2.13 ± 0.029
SAGGSAGGMVTIASITFEEDPEGGITVTVYLPSNGKTITVPVPADTPEAEARARAEAAARAYAASAGGSAGG [r6_628_JUSTAS]	0.894 ± 0.028	1.49 ± 0.098	1.28 ± 0.15

Sequence	folding stability dG unfold [1] [kcal/mol]	folding stability dG unfold [2] [kcal/mol]	folding stability dG unfold [3] [kcal/mol]
SAGGSAGGMVTSSVSALPDGSYRLTITYPDGTVLTFEFDSEEEVAALLAELAEALPADAAVPLASAGGSAGG [r6_464_JUSTAS]	1.64 ± 0.059	1.65 ± 0.046	1.71 ± 0.065
SAGGSAGGMVVERKDMDPEEAVEDTKKRIKEETGWEVTEITVTEFPEEPRLVVTIKVKKPPEKSSAGGSAGG [r6_462_JUSTAS]	-0.287 ± 0.11	0.71 ± 0.016	0.408 ± 0.098
SAGGSAGGMVVRVTLPDGTVVTFEFESEEEFRKEFAASLGLAPDEIPEERIVSVERLSPEEYRSSAGGSAGG [r6_588_JUSTAS]	1.26 ± 0.039	1.64 ± 0.11	1.59 ± 0.086
SAGGSAGGMYKVTITVTDPATGKTVATETLTLESEEEAKEYVEAVKKELPSSLTVSATITKVPESAGGSAGG [r6_690_JUSTAS]	4.77 ± 0.46	4.41 ± 0.072	4.58 ± 0.12
SAGGSAGGMYTKTYNVPPDWKVTATATAPGGATVTDSSAPNGNFTLTFPASLADATTFTVTVTPSAGGSAGG [r6_237_JUSTAS]	-0.869 ± 0.47	0.641 ± 0.13	0.285 ± 0.14
SAGGSAGGNEIAEKLKKKYPNIKIKSVKINPKEGKIEIDLGFPKDAKPETIKKIEKEIEELAKKSAGGSAGG [r6_97_TrMRF]	0.578 ± 0.056	0.442 ± 0.14	0.646 ± 0.34
SAGGSAGGNGPPDIKIKIEILEVHPGHRDPDGKYYFRVRVEIEYPNKPVKVDFPMPADDAKDLISAGGSAGG [r6_724_TrROS]	2.93 ± 0.11	4.2 ± 0.092	3.66 ± 0.15
SAGGSAGGNLTLPPDNIKRIWHVGDGHWLIKMDDNVLMINPGNGKIQTVKKEDADKLPPGDPFFSAGGSAGG [r6_890_TrROS]	-0.473 ± 0.2	0.0704 ± 0.19	0.0115 ± 0.15
SAGGSAGGNPDLVITFPDGVKITVHPDGTITITRFIPGRDVPVGTRTITVPAPDGIPLEELLKYSAGGSAGG [r6_572_TrMRF]	0.887 ± 0.062	1.2 ± 0.059	1.13 ± 0.13
SAGGSAGGNPVRYRVTITVTSPTGGSPVIELELDDPAELAEVEALAAELAAAPVTTTVTVEPIGSAGGSAGG [r6_743_JUSTAS]	1.02 ± 0.049	0.584 ± 0.14	0.807 ± 0.072
SAGGSAGGNVLIPKSKLEEFLKNIPFEVLVLNPENPRLEIARVEADDIFVDDDYALILLTVSNDSAGGSAGG [r6_753_TrMRF]	1 ± 0.032	0.221 ± 0.18	0.742 ± 0.12
SAGGSAGGPEIKVLEVRKLPDGSFEFIVEVPPGDAEKIKSGTVVKIKFGDKEYDVTVEVIPTEGSAGGSAGG [r6_372_TrMRF]	1.73 ± 0.038	2.52 ± 0.051	2.24 ± 0.045
SAGGSAGGPFVLKFPDPKNMNKLQEAASDHGMNMNRNPEKGTHVINFGGNMLDELQELPGIEIVSAGGSAGG [r6_726_TrROS]	-1.05 ± 0.15	-1.1 ± 0.61	-0.769 ± 0.24
SAGGSAGGPIDLDDIKIEEIEHERNPNGMMYHEVTIRFPGGKIPVWFHPNMSLDNAVDMLRAFISAGGSAGG [r6_233_TrROS]	1.4 ± 0.092	0.814 ± 0.11	1.19 ± 0.11
SAGGSAGGPKKIKITNIEYPNGYWRVKISLPNGKEVEYPMDSPDDALDWAEDDGIKEVEIEKYNSAGGSAGG [r6_601_TrROS]	-0.429 ± 0.49	0.358 ± 0.28	0.159 ± 0.18
SAGGSAGGPLVLRIETPEDKVLVLVLPEEAEKLPPKELAEIAAKEFAALPGVKEVKVEIAPLPLSAGGSAGG [r6_710_TrMRF]	0.885 ± 0.058	1.11 ± 0.15	1.03 ± 0.12
SAGGSAGGPLYRVLILLKKPNGEPLLLPLVAEDPEKALELAERLRKEYEEKGYELVAVEIYEFPSAGGSAGG [r6_869_TrMRF]	4.37 ± 0.22	5.26 ± 0.13	5.22 ± 0.22
SAGGSAGGPMSAEELARFLANEFHKKHGMPPGHRVKIPVKWRDPEDGNEQEVTIEIPIRMPKGDSAGGSAGG [r6_799_TrROS]	0.32 ± 0.17	1.4 ± 0.083	1.2 ± 0.16
